Results published in patent publication US20090214574A1 (AFFIMED, published 2009).

Tests used:
[1] = biological target: T1, human CD16A-Fc^48R/158V fusion protein (human, UniProt P08637 17-208, limits assumed); test: surface plasmon resonance
T1 construct: Secreted soluble fusion made in HEK-293 cells; also called CD16-Fc; CD16A Fc-fusion protein; not shown: Fc portion of human IgG1

[2] = biological target: T1, human CD16A-Fc^48R/158V fusion protein; test: SPR, kinetic and steady state analysis
Protocol: (§1) The affinity constants (KD values) of the scFv were determined by SPR using the BIAcore 2000 biosensor system (Amersham-Pharmacia). The CD16A-Fc fusion protein and BSA used as a negative control were immobilized on the carboxymethyldextran-coated sensor chip CM5 using conventional NHS/EDC chemistry for the amine coupling procedure (BIAcore). Purified scFvs were diluted in HBS-EP buffer (BIAcore, Uppsala, Sweden). Binding data was generated by passing varying concentrations of the scFv antibodies (100 nM, 200 nM, 400 nM, 800 nM and 1600 nM) over the immobilized antigen. […] All SPR measurements were performed at a constant flow rate of 20 μL/min in HBS-EP buffer at 25° C. Each injected sample (100 μl) was in contact with antigen for 5 minutes. The dissociation was followed for 30 minutes. After each cycle, the surface of the sensor chip was flushed with HBS-EP buffer. Signals from the control channel coated with BSA were automatically subtracted. Kinetic constants were calculated according to the 1/1 Langmuir binding model using the BIAevaluation version 3.0 software (BIAcore).

[3] = biological target: T1, human CD16A-Fc^48R/158V fusion protein; test: SPR, BIAcore 2000, antigen immobilized
Protocol: as §1

[4] = biological target: T1, human CD16A-Fc^48R/158V fusion protein; test: SPR, steady state analysis (column Keq)
Protocol: as §1

[5] = biological target: T1, human CD16A-Fc^48R/158V fusion protein; test: SPR, BIAcore 2000, antigen immobilized, koff/kon
Protocol: as §1

[6] = biological target: T1, human CD16A-Fc^48R/158V fusion protein; test: SPR, BIAcore 2000, CD16A-Fc immobilized on CM5, koff/kon
Protocol: as §1

[7] = biological target: T1, human CD16A-Fc^48R/158V fusion protein; test: SPR, BIAcore 2000, CD16A-Fc immobilized on CM5, 1:1 Langmuir
Protocol: as §1

[8] = biological target: T2, CD16B-Fc^SH (human, UniProt O75015 17-200); test: ELISA on 200 ng coated antigen; scFv, anti-His-HRP (1 µg/ml)
T2 construct: extracellular domain; not shown: Fc region carried by the pSEC plasmid
T2 sequence (O75015 17-200 N65S/A78D): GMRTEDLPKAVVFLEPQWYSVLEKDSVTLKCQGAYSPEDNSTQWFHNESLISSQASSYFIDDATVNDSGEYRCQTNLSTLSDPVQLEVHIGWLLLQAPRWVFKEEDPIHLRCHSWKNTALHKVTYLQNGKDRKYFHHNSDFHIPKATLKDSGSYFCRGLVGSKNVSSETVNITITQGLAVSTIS
Protocol: (§2) FIG. 7: ELISA on different CD16 isoforms. […] An anti-NKp46 scFv used as a primary antibody acted as a negative control.
(§3) Detection of scFv bound to the recombinant proteins was carried out using an anti-His-HRP conjugate (1 μg/ml).

[9] = biological target: T3, CD16B-Fc^NA1 (human, UniProt O75015 17-200); test: as above
T3 construct: extracellular domain; not shown: Fc region carried by the pSEC plasmid
T3 sequence (O75015 other isoform, or with tags, fused parts or gaps): as the sequence (O75015 17-200 N65S/A78D) above, with S20R, S49N, D62A, N66D, I90V counted along it
Protocol: as §2, §3

[10] = biological target: T4, CD16B-Fc^NA2 (human, UniProt O75015 17-200); test: as above
T4 construct: extracellular domain; not shown: Fc region carried by the pSEC plasmid
T4 sequence (O75015 17-200 N65S): as the sequence (O75015 17-200 N65S/A78D) above, with D62A counted along it
Protocol: as §2, §3

[11] = biological target: T5, NKp46-Fc (UniProt O76036 22-258, limits assumed); test: as above
T5 construct: Negative control protein; also called NKp46-Fc control protein; not shown: Fc part, not described
T5 sequence (O76036 22-258 limits assumed): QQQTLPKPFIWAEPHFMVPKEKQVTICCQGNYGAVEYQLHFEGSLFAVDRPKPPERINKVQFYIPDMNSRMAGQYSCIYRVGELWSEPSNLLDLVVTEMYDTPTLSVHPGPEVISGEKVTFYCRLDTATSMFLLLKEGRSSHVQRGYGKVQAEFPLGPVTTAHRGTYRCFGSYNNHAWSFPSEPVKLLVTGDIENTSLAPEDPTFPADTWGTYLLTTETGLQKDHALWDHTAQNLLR
Protocol: as §2, §3

[12] = biological target: T6, commercially available recombinant CD16B (Allele NA-2; BSA free; RD Systems) (UniProt O75015 17-200, limits assumed); test: ELISA on recombinant CD16B coated at 80 nM; scFv detected with anti-c-Myc-HRP (10 µg/ml)
T6 construct: also called recombinant CD16B-Fc
T6 sequence (O75015 17-200 N65S limits assumed): as the sequence (O75015 17-200 N65S/A78D) above, with D62A counted along it
Protocol: (§4) FIG. 3: ELISA on recombinant CD16A-Fc and CD16B. Recombinant CD16A-Fc and CD16B proteins were coated at 80 nM in 0.1 M NaHCO₃, pH 8.8. Wells were blocked with PBS, 2% skimmed milk. The binding of the scFv to the recombinant proteins and to gp34-Fc (negative control) was detected using an anti-c-Myc-HRP conjugate (10 μg/ml). […] Coated recombinant CD16B was directly detected by staining with an anti-His-HRP (1 μg/mL) and coating of the Fc-Fusion proteins was tested by an anti-human IgG-HRP conjugate (0.5 μg/mL). As HRP-substrate, 50 μL of TMB were used. After termination of the reaction with 50 μL 0.5 M H₂SO₄, absorbance was measured at 450 nm.
(§5) In order to generate further supporting data concerning the CD16A specificity of the scFvs, an ELISA was performed using the CD16A-Fc fusion protein (Example 1) and commercially available recombinant CD16B-Fc (Allele NA-2; BSA free; RD Systems). A gp34-Fc fusion protein was used as a negative control. The recombinant proteins were coated overnight at a concentration of 80 nM in 100 mM NaHCO₃ at pH 8.8.
(§6) Detection of scFv bound to the recombinant proteins was carried out by using an anti-c-myc-HRP conjugate (10 μg/ml). […] Binding to the recombinant CD16B was tested by directly staining with anti-His-HRP (1 μg/mL) and binding to the Fc-Fusion proteins was tested by an anti-human IgG-HRP conjugate (0.15 μg/mL).

[13] = biological target: T7, native CD16B on human polymorphonuclear cells (neutrophilic granulocytes) (human, UniProt O75015 17-200); test: flow cytometry on freshly isolated PMN; scFv, anti-(His)6 MAb, FITC goat anti-mouse IgG; MFI minus secondary reagents alone
T7 construct: whole, on cells; also called PMN; CD16B-positive granulocytes
T7 sequence (O75015 17-200): as the sequence (O75015 17-200 N65S/A78D) above, with S49N, D62A counted along it
Protocol: Polymorphonuclear cells (PMN) and natural killer (NK) cells were isolated from peripheral blood from a healthy donor and used for flow cytometric staining and analysis. […] All scFv were used at a concentration of 50 μg/mL and were detected with 10 μg/mL anti-(His)₆ followed by 15 μg/mL FITC-conjugated goat anti-mouse IgG. The mean fluorescence intensities obtained from flow cytometric analysis were corrected by subtracting the fluorescence values from cell stainings with the secondary reagents alone and were plotted in the diagram.
Enrichment of NK cells was performed by negative selection as described above.

[14] = biological target: T8, human CD16B (NA-2 allele) on stably transfected HEK-293 cells (293/CD16B) (human, UniProt O75015 17-200); test: flow cytometry on 293/CD16B cells; scFv, anti-hexa His MAb 13/45/31-2, FITC goat anti-mouse IgG; MFI minus secondary reagents alone
T8 construct: whole, on cells
T8 sequence (O75015 17-200 N65S): as the sequence (O75015 17-200 N65S/A78D) above, with D62A counted along it
Protocol: (§7) The mean fluorescence intensities obtained from flow cytometric analysis were corrected by subtracting the fluorescence values from cell stainings with the secondary reagents alone, and plotted in the diagram.
(§8) For flow cytometric analysis, the following cell lines were used: BW and BW/CD16A transfectants were cultured as described previously. […] The transient transfections were performed using the calcium phosphate method as described in Example 1 and were used for flow cytometric staining and analysis two days after transient transfection. Flow cytometric staining and analysis was performed as essentially described before.

[15] = biological target: T9, NKp46 extracellular domain fused to zeta chain, on transiently transfected HEK-293 cells (293/NKp46) (human, UniProt O76036 22-258; P20963 31-164); test: flow cytometry on 293/NKp46 cells; scFv, anti-hexa His MAb 13/45/31-2, FITC goat anti-mouse IgG; MFI minus secondary reagents alone
T9 construct: extracellular domain;domain: transmembrane and cytoplasmic domain; On the cell surface; also called NKp46-transfectants; pcDNA3-NKp46-zeta
T9 sequence (O76036 other isoform, or with tags, fused parts or gaps limits assumed): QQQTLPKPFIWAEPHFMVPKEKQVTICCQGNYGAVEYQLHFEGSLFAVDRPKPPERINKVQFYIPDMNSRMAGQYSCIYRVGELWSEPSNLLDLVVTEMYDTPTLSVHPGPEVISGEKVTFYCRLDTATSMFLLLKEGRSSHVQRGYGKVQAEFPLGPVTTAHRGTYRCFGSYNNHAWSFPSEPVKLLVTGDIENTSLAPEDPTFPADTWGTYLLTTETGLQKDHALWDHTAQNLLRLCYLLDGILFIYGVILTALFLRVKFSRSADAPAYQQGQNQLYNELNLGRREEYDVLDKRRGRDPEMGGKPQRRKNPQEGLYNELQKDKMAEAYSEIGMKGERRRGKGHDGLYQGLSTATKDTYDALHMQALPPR
Protocol: as §7, §8

[16] = biological target: T5, NKp46-Fc; test: Western blot on NKp46-Fc
Protocol: For further characterization all of the anti-CD16A scFv were tested for binding in Western Blot on recombinant CD16A-Fc and NKp46-Fc.
The proteins were transferred on a nitrocellulose membrane by electroblotting. After staining with Ponceau S, the membrane was cut into strips of 5 mm width. Each nitrocellulose strip was individually incubated with scFv (4 μg/ml) in PBS, 0.1% tween, 2% skimmed milk. Detection was carried out with the anti-Penta His HRP-conjugate (1 μg/mL) using diaminobenzidine (DAB) as a peroxidase substrate. […] As an additional positive control, a goat anti-human IgG HRP-conjugate (0.16 μg/mL) was used for detection of the Fc portion of the fusion proteins.

[17] = biological target: T6, commercially available recombinant …; test: ELISA, recombinant CD16B coated at 80 nM
Protocol: as §4, §5, §6

[18] = biological target: T10, Streptavidin (UniProt P22629 37-163, limits assumed); test: ELISA on coated streptavidin; periplasmic extract, anti-Penta His-HRP
T10 construct: also called streptavidin alone
T10 sequence (P22629 37-163 limits assumed): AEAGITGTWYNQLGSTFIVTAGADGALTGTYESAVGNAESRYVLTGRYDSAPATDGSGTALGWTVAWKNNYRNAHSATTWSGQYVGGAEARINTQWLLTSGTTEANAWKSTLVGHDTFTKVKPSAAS

T1 sequence (P08637 17-208 L66R/F176V limits assumed): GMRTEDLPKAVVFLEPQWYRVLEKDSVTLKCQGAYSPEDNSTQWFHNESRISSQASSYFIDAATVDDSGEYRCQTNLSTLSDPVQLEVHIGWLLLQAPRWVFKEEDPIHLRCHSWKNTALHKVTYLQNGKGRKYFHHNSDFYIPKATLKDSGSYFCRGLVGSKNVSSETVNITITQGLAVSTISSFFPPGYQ

Binder	Kd [1]	fold improvement of affinity over parental clone 50NI [2]	koff [3]	kon [3]	Kd [4]	Kd [5]	Kd [6]	koff [7]	kon [7]	binding result [8]	binding result [9]	binding result [10]	binding result [11]	binding result [12]	binding result [13]	binding result [14]	binding result [15]	binding result [16]	binding result [17]	binding result [18]
affinity matured anti-CD16A scFv 4-LS21 (scFv, IMAC-purified from pSKK2) scFv: EVQLVQSGAEVKKPGESLKVSCKASGYTFTSYYMHWVRQAPGQGLEWMGIINPSGGSTSYAQKFQGRVTMTRDTSTSTVYMELSSLRSEDTAVYYCARGSAYYYDFADYWGQGTLVTVSSGSASAPTLKLEEGEFSEARVQPVLTQPSSVSVAPGQTATISCGGHNIGSKNVHWYQQRPGQSPVLVIYQDNKRPSGIPERFSGSNSGNTATLTISGTQAMDEADYYCQVWDNYSVLFGGGTKLTVLGQPKAAPSVTLFPPSAAAGSEQKLISEEDLNSHHHHHH	~50 nM	> 20 fold	0.00342 s⁻¹	55400 M⁻¹ s⁻¹	203 nM	61.7 nM	113 nM	0.0063 s⁻¹	56000 M⁻¹ s⁻¹	no binding (tested: 4 µg/ml)	no binding (tested: 4 µg/ml)	no binding (tested: 4 µg/ml)	no binding (tested: 4 µg/ml)	no binding (tested: not given)	no binding (tested: 50 µg/mL)	no binding (tested: 50 µg/mL)	no binding (tested: 50 µg/mL)	–	–	–
human anti-CD16A scFv 50NI (scFv, also called clone 50NI; parental clone) scFv: EVQLVQSGAEVKKPGESLKVSCKASGYTFTSYYMHWVRQAPGQGLEWMGIINPSGGSTSYAQKFQGRVTMTRDTSTSTVYMELSSLRSEDTAVYYCARGSAYYYDFADYWGQGTLVTVSSGSASAPTLKLEEGEFSEARVSYELMQPPSVSVSSGQTASIPCSGDKLEEKYVSWYQQRPGQSPVLVIYQDNKRPSGIPERFSGSNSGNTATLTISGTQAMDEADYYCQVWDNYSVLFGGGTKLTVLGQPKAAPSVTLFPPSAAAGSEQKLISEEDLNSHHHHHH	–	–	–	–	2560 nM	–	1230 nM	0.0217 s⁻¹	17600 M⁻¹ s⁻¹	–	–	–	–	–	no binding (tested: 50 µg/mL)	no binding (tested: 50 µg/mL)	no binding (tested: 50 µg/mL)	no binding (tested: 4 µg/ml)	no binding	no binding
